Source: patent US20230357384A1 (NEXTCURE, published 2023)
Residue numbers refer to the chain shown, from its start. Blank lines part the entries; values can stand above or below the binder they belong to.

Columns and labels:
[1] = biological target: T1, FLRT3-His monomeric fusion protein (Homo sapiens (Human), UniProt Q9NZU0 29-528); test: kinetic affinity measurement with FLRT3-His monomer (Table 1)
T1 construct: also called FLRT3 monomer; not shown: His tag
T1 sequence: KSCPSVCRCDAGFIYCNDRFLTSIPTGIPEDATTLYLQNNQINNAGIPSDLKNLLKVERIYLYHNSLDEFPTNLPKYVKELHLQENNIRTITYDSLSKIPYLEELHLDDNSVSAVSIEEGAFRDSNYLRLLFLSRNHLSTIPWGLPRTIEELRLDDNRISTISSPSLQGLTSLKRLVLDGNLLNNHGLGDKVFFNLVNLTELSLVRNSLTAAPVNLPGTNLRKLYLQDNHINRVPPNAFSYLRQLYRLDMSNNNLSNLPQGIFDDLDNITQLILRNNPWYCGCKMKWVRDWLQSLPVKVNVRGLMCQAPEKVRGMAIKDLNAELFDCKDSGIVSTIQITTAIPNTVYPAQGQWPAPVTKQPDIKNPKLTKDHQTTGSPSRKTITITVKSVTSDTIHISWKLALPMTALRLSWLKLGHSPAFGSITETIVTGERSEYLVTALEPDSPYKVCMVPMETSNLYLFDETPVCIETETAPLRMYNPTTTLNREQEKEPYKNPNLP

human FLRT3 on cells [2] = biological target: T2, human FLRT3 on cells (human, UniProt Q9NZU0 29-649); test: flow cytometry (AF647 MFI), FLRT3-293T-OKT3 cells, antibody titration
T2 construct: also called hFLRT3
T2 sequence: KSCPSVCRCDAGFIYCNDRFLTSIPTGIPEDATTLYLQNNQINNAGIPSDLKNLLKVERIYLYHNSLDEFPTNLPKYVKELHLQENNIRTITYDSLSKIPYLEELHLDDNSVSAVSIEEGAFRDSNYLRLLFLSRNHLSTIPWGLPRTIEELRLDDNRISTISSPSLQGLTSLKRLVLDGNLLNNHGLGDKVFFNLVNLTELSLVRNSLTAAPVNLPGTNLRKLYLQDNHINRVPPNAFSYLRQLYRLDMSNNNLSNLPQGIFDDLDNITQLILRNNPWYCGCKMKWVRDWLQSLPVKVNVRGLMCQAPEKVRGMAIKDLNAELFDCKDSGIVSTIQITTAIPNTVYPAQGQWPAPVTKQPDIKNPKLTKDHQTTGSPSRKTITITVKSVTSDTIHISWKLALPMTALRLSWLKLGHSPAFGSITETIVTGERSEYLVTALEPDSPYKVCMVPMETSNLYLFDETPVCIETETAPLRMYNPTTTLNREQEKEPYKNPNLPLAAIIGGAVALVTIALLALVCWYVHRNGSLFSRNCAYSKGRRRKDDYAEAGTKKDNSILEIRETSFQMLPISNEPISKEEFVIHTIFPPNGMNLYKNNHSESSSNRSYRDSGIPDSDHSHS

[3] = biological target: T1, FLRT3-His monomeric fusion protein; test: Octet, FLRT3 antibodies and FLRT3 monomer
[4] = biological target: T3, FLRT3 (antigen of the binning assay of Table 2) (Homo sapiens (Human), UniProt Q9NZU0 29-528, limits assumed); test: antibody binning matrix (Table 2); row '1X Kinetic' (no first antibody), column antibody taken as binder
T3 construct: the whole entry for FLRT3 is named
T3 sequence: T1 sequence

[5] = biological target: T4, mouse FLRT3 on transiently transfected 293T cells (mouse, UniProt Q8BGT1 29-649); test: flow cytometry (AF647 MFI), transiently transfected mFLRT3-293T cells
T4 construct: also called mFLRT3
T4 sequence: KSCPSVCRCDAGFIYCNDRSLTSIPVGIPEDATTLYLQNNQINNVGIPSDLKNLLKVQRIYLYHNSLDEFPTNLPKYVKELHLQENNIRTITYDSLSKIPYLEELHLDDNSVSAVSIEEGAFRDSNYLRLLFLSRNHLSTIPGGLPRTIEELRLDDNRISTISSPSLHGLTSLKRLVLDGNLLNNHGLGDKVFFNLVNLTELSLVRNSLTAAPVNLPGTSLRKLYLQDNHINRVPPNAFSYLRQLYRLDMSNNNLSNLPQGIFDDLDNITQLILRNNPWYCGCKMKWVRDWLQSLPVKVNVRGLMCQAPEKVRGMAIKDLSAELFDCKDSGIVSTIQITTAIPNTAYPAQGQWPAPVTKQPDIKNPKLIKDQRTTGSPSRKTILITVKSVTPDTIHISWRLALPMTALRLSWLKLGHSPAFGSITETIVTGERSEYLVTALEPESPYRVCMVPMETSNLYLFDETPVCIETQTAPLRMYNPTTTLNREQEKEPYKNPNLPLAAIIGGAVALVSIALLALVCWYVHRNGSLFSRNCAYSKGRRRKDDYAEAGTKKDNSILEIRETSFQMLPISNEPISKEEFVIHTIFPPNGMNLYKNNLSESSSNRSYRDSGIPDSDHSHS

[6] = biological target: T3, FLRT3 (antigen of the binning assay of …); test: antibody binning matrix (Table 2); competitor: 14D3
human FLRT3 on cells [7] = biological target: T2, human FLRT3 on cells; test: flow cytometry on 293T cells transfected with human FLRT3, normalised MFI, non-linear fit; Exp 1
Excerpt: (§1) MFI values of each group were normalized within that group- i.e. largest value 100% and smallest value 0%.

[8] = biological target: T3, FLRT3 (antigen of the binning assay of …); test: antibody binning matrix (Table 2); competitor: 1H5
human FLRT3 on cells [9] = biological target: T2, human FLRT3 on cells; test: flow cytometry on 293T cells transfected with human FLRT3, normalised MFI, non-linear fit; Exp 2
Excerpt: as §1

human FLRT3 on cells [10] = biological target: T2, human FLRT3 on cells; test: flow cytometry on 293T cells transfected with human FLRT3, normalised MFI, non-linear fit
Excerpt: as §1

[11] = biological target: T3, FLRT3 (antigen of the binning assay of …); test: antibody binning matrix (Table 2); competitor: 14B7
[12] = biological target: T3, FLRT3 (antigen of the binning assay of …); test: antibody binning matrix (Table 2); competitor: 5C2
[13] = biological target: T3, FLRT3 (antigen of the binning assay of …); test: antibody binning matrix (Table 2); competitor: 15G11
[14] = biological target: T3, FLRT3 (antigen of the binning assay of …); test: antibody binning matrix (Table 2); competitor: 2F7
human FLRT3 on cells [15] = biological target: T2, human FLRT3 on cells; test: flow cytometry on A549 cells (endogenous hFLRT3), normalised MFI, non-linear fit
Protocol: Increasing concentrations of FLRT3 antibodies bound to A549 cells that express endogenous hFLRT3 (FIG. 19). Binding curves for the top three antibodies were performed (FIG. 20A). MFI values of each group were normalized within that group- i.e. largest value 100% and smallest value 0% (FIG. 20A). EC50 values were calculated based on non-linear regression fit (FIG. 20B).

B1: 7H7 (antibody, V domains shown)
VH: EIQLQQSGAELVKPGASVKISCKASGYSFTGYNMNWVKQSHGKSLEWIGNINPYYGSTSYNQKFKGKATLTVDKSSNTAYMQLNSLTSEDSAVYYCARWGYGYDDWYFDVWGAGTTVTVSS
VL: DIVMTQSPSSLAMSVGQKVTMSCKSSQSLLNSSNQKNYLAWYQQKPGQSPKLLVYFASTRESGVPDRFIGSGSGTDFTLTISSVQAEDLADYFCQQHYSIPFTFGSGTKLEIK
notes: Variable domains only
Kd [1]: ≤ 0.001 nM | koff [1]: ≤ 1e-07 s⁻¹ | kon [1]: 60500 M⁻¹ s⁻¹

B6: 1H5 (antibody, V domains shown)
VH: EVQLQQSGPELVKPGASVKMSCKASGYTFTDYYMNWVKQSHGKSLEWIGRVNPSNGVTSYNQKFKGKAALTVDKSLSTAYMQLNSLTSEDSAVYYCARDFLMDYWGQGTSVTVSS
VL: DIVMTQSHKFMSTSVGDRVTITCKASQDVGTAVAWYQQKPGQSPKLLIYWASTRHTGVPDRFTGSGSGTDFTLTISNVQSEDLADYFCQQYSSYPTFGGGTKLEIK
notes: Variable domains only
binning response (no name or unit printed) [4]: 0.947 | EC50 (read off the curve) (human FLRT3 on cells [2]): ~10 nM | binning response (no name or unit printed) [6]: 0.549 | binning response (no name or unit printed) [8]: -0.0568 | binning response (no name or unit printed) [11]: 1.2 | binning response (no name or unit printed) [12]: -0.26 | binning response (no name or unit printed) [13]: 0.97 | binning response (no name or unit printed) [14]: -0.0098 | Kd [1]: 0.19 nM | koff [1]: 1.6e-05 s⁻¹ | kon [1]: 140000 M⁻¹ s⁻¹

B7: 2F7 (antibody, V domains shown)
VH: EVQLQQSGPELVKPGASVKMSCKASGYTFTDYYMNWVKQSHGKSLEWIGRVYPSNSGASYNQKFKGKATLTVDKSLSTAYMQLNSLTSEDSAVYYCASSYYFDYWGQGTTLTVSS
VL: B6 VL with V15I, T20N, Y36F, G99A, K102T, I105L
notes: Variable domains only
binning response (no name or unit printed) [4]: 0.99 | EC50 (read off the curve) (human FLRT3 on cells [2]): ~8 nM | binning response (no name or unit printed) [6]: 0.38 | binning response (no name or unit printed) [8]: -0.116 | binning response (no name or unit printed) [11]: 1.06 | binning response (no name or unit printed) [12]: -0.398 | binning response (no name or unit printed) [13]: 0.798 | binning response (no name or unit printed) [14]: -0.0655 | koff [1]: 0.000135 s⁻¹ | kon [1]: 177000 M⁻¹ s⁻¹

B8: 12A4 (antibody, V domains shown)
VH: B6 VH with V57G, S59T, K63R, A69T, K74E
VL: B6 VL with T20S, A34T, Q42L, I48F, Q89H, S93N
notes: Variable domains only
EC50 (human FLRT3 on cells [7]): 15.7 nM | EC50 (human FLRT3 on cells [9]): 17.7 nM | EC50 (human FLRT3 on cells [15]): 251 nM | Kd [1]: 0.218 nM | koff [1]: 3.24e-05 s⁻¹ | kon [1]: 133000 M⁻¹ s⁻¹

Other lines, results leading:

Kd [1]: 2.21 nM | koff [1]: 0.000207 s⁻¹ | kon [1]: 86200 M⁻¹ s⁻¹
B2: 20C3 (antibody, V domains shown)
VH: EVKLEESGGGLVQPGGSMKLSCVVSGFTFSNYWMNWVRQSPEKGLEWVAQIRLKSDNYATHYAESVKGRFTISRDDSKSSVYLQMNNLRAEDTGIYYCTGESNIYYGYFDYWGQGTTLTVSS
VL: QIVLTQSPAIMSASPGEKVTMTCSASSSVSYMHWYQQKSGTSPKRWIYDTSKLASGVPARFSGSGSGTSYSLTISSMEAEDAATYYCQQWSGNPYTFGGGTKLEIK
notes: Variable domains only

binding result (human FLRT3 on cells [2]): no binding (tested: about 300 nM) | binding result [3]: no binding
B3: 13B2 (antibody, V domains shown)
VH: EIQLQQSGTELVKPGASVKISCKASGYSFTGYNMNWMKQSHGMSLEWIGNINPYYGSTSYNQKFKGKATLTIDKSSSTAYMQLNSLTSEDSAVYYCARDRKNWEYFFDYWGQGTTLTVSS
VL: ETTVTQSPASLSMAIGEKVTIRCITSTDIDDDMNWYQQKPGKPPKLLISEGNTLRPGVPSRFSSSGYGTDFVFTIENMLSEDVADYYCLQSDNLPYTFGGGTKLEIK
notes: Variable domains only

binning response (no name or unit printed) [4]: 0.947 | binding result [5]: binds | binning response (no name or unit printed) [6]: -0.0406 | EC50 (human FLRT3 on cells [7]): 1.82 nM | binning response (no name or unit printed) [8]: 0.644 | EC50 (human FLRT3 on cells [9]): 3.24 nM | EC50 (human FLRT3 on cells [10]): < 5 nM | binning response (no name or unit printed) [11]: 1.36 | binning response (no name or unit printed) [12]: -0.101 | binning response (no name or unit printed) [13]: 0.196 | binning response (no name or unit printed) [14]: 0.75 | EC50 (human FLRT3 on cells [15]): 8.21 nM
B4: 14D3 (antibody, V domains shown)
VH: EIQLQQSGAELVKPGASVKISCKASGYSFTGYNMNWVKQSHGKSLEWIGNITPYYGSASYNQKFKGKATLTVDKSSSTAYMQLNSLTSEDSAVYYCARRSYDYDENAMDYWGQGTSVTVSS
VL: DIVMTQSHKFMSTSVGDRVSITCKASQDLSTAVAWYQQKPGQSPKLLIYSASYRYTGVPDRFTGSGSGTDFTFTISSVQAEDLAVYYCQQHYSTPLTFGAGTKLELK
notes: Variable domains only

binding result (human FLRT3 on cells [2]): no binding (tested: about 300 nM)
B5: 10C6 (antibody, V domains shown)
VH: EIQLQQSGAEMVKPGASVKISCKASGHSFTGYNMNWVKQSHEKSLEWIGNINPYYGSTSYNQKFKGKATLTVDKSSSTAYMQLNSLTSEDSAVYYCARGGYDDYFDYWGQGTTLTVSS
VL: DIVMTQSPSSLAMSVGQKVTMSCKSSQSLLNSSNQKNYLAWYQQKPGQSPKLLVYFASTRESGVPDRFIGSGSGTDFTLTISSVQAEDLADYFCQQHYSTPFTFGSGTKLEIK
notes: Variable domains only
